Laboratory results reported in patent US20220195051A1 (UNIVERSIT T Z RICH, published 2022).

Target: T1, human recombinant biotinylated FcRn (Immunitrack) (human, UniProt P55899 24-297, biotinylated (site not told))
T1 construct: Immobilised on a ProteOn NLC chip for SPR at pH 6.0; also called human FcRn; hFcRn
Assay: SPR, human FcRn immobilised, IL-12Fc variants in solution, pH 6.0
Protocol: SPR was performed using the ProteOn XPR36 System (Bio-Rad Laboratories, Inc.), coating human recombinant biotinylated FcRn (Immunitrack) on a ProteOn NLC sensor chip to approximately 80 response units (RU). […] The dissociation time was 600 s. Analysis was performed using the ProteOn Manager software (Bio-Rad Laboratories, Inc.) using data normalization to the injection time, interspot background removal and build-in artefact removal function. Kd were calculated using the equilibrium analysis model.

T1 sequence (P55899 24-297): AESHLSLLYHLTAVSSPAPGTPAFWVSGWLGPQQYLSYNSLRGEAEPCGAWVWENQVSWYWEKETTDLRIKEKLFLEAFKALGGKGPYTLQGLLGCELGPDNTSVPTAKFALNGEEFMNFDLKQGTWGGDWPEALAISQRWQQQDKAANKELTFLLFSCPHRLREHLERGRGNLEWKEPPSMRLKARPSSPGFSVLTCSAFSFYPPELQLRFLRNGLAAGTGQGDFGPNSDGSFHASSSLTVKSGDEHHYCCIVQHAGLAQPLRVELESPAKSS

B1: human IL-12Fc NHQ (Fc fusion)
chain: IWELKKDVYVVELDWYPDAPGEMVVLTCDTPEEDGITWTLDQSSEVLGSGKTLTIQVKEFGDAGQYTCHKGGEVLSHSLLLLHKKEDGIWSTDILKDQKEPKNKTFLRCEAKNYSGRFTCWWLTTISTDLTFSVKSSRGSSDPQGVTCGAATLSAERVRGDNKEYEYSVECQEDSACPAAEESLPIEVMVDAVHKLKYENYTSSFFIRDIIKPDPPKNLQLKPLKNSRQVEVSWEYPDTWSTPHSYFSLTFCVQVQGKSKREKKDRVFTDKTSATVICRKNASISVRAQDRYYSSSWSEWASVPCSRNLPVATPDPGMFPCLHHSQNLLRAVSNMLQKARQTLEFYPCTSEEIDHEDITKDKTSTVEACLPLELTKNESCLNSRETSFITNGSCLASRKTSFMMALCLSSIYEDLKMYQVEFKTMNAKLLMDPKRQIFLDQNMLAVIDELMQALNFNSETVPQKSSLEEPDFYKTKIKLCILLHAFRIRAVTIDRVMSYLNASKVDKRVESKYGPPCPPCPAPEFLGGPSVFLFPPKPKDTLMNSRTPEVTCVVVDVSQEDPEVQFNWYVDGVEVHNAKTKPREEQFNSTYRVVSVLTVLHQDWLNGKEYKCKVSNKGLPSSIEKTISKAKGQPREPQVYTLPPSPEEMTKNQVSLTCLVKGFYPSDIAVEWESNGQPENNYKTTPPVLDSDGSFFLYSRLTVDKSRWQEGNVFSCSVMHEALHNQYTQKSLSLSLGK
notes: mature; As m1 with I253N and H435Q (EU) in the Fc; also called NHQ variant; not shown: Gly-Ser-linker between p40 and p35
In the case of B1, the “fold reduction of affinity against IL-12Fc WT” value is reported as roughly 8 fold.
